In paper PMC7797058, “Characterization of the first tetrameric transcription factor of the GntR superfamily with allosteric regulation from the bacterial pathogen Agrobacterium fabrum” (Nucleic Acids Research, 2020):

Biological target: T1, Atu1419-H3A H141A;H192A;H214A (Agrobacterium fabrum C58) (UniProt A9CJ36)
T1 sequence: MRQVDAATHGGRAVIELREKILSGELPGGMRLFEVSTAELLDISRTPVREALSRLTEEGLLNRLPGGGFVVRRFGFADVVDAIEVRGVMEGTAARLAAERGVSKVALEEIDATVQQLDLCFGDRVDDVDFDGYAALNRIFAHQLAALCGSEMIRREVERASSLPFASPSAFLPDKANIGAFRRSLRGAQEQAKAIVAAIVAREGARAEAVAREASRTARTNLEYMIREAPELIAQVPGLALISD
Experiment: EMSA
Conditions: EMSA: 50 mM Tris-HCl pH 8, 150 mM NaCl, 30 nM DNA, 30 min at room temperature; gel 6% or 12% PAGE in TBE at 4 C

For “AAGCGCCTGAACTGATTGCGCAGGTTCCGGGTCTCGCACTCATCAGCGACTAAGCGGCGGAAATCGCTGCAAATCCAGGGGTGGCGCCTTTTGGCGCCGCCTTTATTTTTGTCGACACCCTCCCTGACGCGGTAATTTTGCGCTTGCAATTTATCAAAGCACAGCGTTTCATGTATACATAGATGCGATTGCCAGGGAGGAGATGACAATGGCAAATTCCAGTCTGACCGAGGTTTTGAAGCAATATCCGAACCCCGTTGAAATGCTC (double strand) [Patu1420]”, the binding was “binds”.
